B1: GST-PRD^trunc1 (mouse dynamin-1 PRD aa747-810 fused to GST) (domain or fragment, UniProt P39053 747-810, looked up)
chain: TTTVSTPMPPPVDDSWLQVQSVPAGRRSPTSSPTPQRRAPAVPPARPGSRGPAPGPPPAGSALG
notes: dynamin-1 PRD, mouse, aa747-810; also called tr1; source: purified as GST fusion protein (GSTrap, Superdex 200 SEC)
B2: Mouse dynamin-1 proline-rich domain (residues 747-842) fused to GST (domain or fragment, UniProt P39053 747-842, looked up)
chain: TTTVSTPMPPPVDDSWLQVQSVPAGRRSPTSSPTPQRRAPAVPPARPGSRGPAPGPPPAGSALGGAPPVPSRPGASPDPFGPPPQVPSRPNRAPPG
notes: dynamin-1 proline-rich domain (PRD), mouse, residues 747-842; 100% identical to the human dynamin-1 PRD; Construct from the De Camilli laboratory; also called GST-PRD; PRD^wt; source: expression vector pGEX-6P-1, purified (GSTrap, Superdex 200 SEC)

Experiments:
[1] = target: T1, Human full-length pacsin-1 (human, UniProt Q9BY11 1-444); assay: pull-down; GST-PRD baits on GST SpinTrap resin, purified pacsin-1 prey 2 h at 4°C; 25 mM Tris-Cl pH 7.5, 100 mM NaCl; eluted with 10 mM glutathione; SDS-PAGE and Coomassie staining; settings: both partners purified
T1 construct: pacsin-1 (syndapin-1), human, full length; The His6-SUMO moiety was cleavable with Ulp-1; also called pacsin isoform 1; syndapin; source: modified pET28a expression plasmid, purified as described previously [27], [35]

[2] = target: T1, Human full-length pacsin-1; assay: SEC; pacsin-1 (40 µM) and GST-PRD (80 µM) incubated for 15 min, then size-exclusion chromatography; fractions analysed by SDS-PAGE and Coomassie staining; settings: both partners purified

T1 sequence (Q9BY11 whole entry, canonical isoform): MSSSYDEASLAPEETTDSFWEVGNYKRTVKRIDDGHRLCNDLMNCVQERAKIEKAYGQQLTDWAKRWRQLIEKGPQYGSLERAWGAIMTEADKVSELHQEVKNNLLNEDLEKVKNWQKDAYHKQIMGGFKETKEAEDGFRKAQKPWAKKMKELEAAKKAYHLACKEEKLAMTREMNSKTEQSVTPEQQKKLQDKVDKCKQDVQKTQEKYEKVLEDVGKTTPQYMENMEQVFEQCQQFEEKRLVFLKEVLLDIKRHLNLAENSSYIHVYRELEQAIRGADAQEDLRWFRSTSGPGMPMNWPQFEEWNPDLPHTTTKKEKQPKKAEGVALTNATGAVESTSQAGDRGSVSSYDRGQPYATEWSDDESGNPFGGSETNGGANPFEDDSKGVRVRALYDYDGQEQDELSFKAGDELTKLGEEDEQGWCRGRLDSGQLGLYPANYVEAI

| Binder | binding result [1] | binding result [2] |
| --- | --- | --- |
| B1 | binds |  |
| B2 |  | binds |

Reference: PMC3517540, “Versatile Membrane Deformation Potential of Activated Pacsin” (PLoS ONE, 2012)
